Data taken from PMC11931385, “Structural and functional analysis of cancer-associated missense variants in the retinoblastoma protein pocket domain” (The Journal of Biological Chemistry, 2025).
Where a chain is given by its changes, count along the chain named. Numbers in names are those of the source. No end group written: not given here. TMR = tetramethyl rhodamine dye

B1: TMR-E2F1^TD, peptide of the E2F1 transactivation domain (peptide)
peptide: {TMR}-GEGIRDLFDCDFGDLTPLD
notes: also called E2F^TD; source: synthetic peptide, bought: GenScript
B2: TMR-E7^LxCxE, LxCxE peptide of the E7 oncoprotein from HPV (peptide)
peptide: DLYCYEQLN
modifications: also: TMR label, position not given here
notes: source: synthetic peptide, bought: GenScript

Columns and labels:
Experiment in all cases: fluorescence polarisation; 25 °C; unlabeled Rb^P titrated against 1.5 nM TMR-E2F1^TD or 7.5 nM TMR-E7^LxCxE; 25 mM Tris pH 8.0, 200 mM NaCl, 1 mM DTT, 0.1% Tween-20; 2 min incubation; quadratic fit; apparent Kd for the variants, Kd for WT
Details in all cases: both partners purified
Rb^P S474N = target: T1, Rb^P S474N (human, UniProt P06400 380-788, S474N)
T1 construct: also called variant 12
T1 sequence (looked up): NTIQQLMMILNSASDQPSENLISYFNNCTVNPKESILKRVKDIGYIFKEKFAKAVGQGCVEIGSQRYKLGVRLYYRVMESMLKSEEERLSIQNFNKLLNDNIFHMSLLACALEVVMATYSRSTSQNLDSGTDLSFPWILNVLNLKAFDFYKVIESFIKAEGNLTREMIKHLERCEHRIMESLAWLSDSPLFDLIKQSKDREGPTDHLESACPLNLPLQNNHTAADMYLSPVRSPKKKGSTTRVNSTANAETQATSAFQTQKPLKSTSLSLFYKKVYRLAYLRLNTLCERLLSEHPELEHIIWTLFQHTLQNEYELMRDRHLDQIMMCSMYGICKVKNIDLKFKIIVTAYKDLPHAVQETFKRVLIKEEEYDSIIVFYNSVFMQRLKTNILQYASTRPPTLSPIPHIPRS

Rb^P K462E = target: T2, Rb^P K462E (human, UniProt P06400 380-788, K462E)
T2 construct: also called variant 8
T2 sequence (looked up): T1 sequence (looked up) with K83E, N95S

[1] = target: T3, retinoblastoma protein pocket domain (Rb^P), wild type (human, UniProt P06400 380-788)
T3 construct: also called WT Rb^P; WT
T3 sequence (looked up): T1 sequence (looked up) with N95S

Rb^P D604G = target: T4, Rb^P D604G (human, UniProt P06400 380-788, D604G)
T4 construct: also called variant 36
T4 sequence (looked up): T1 sequence (looked up) with N95S, D225G

Rb^P R741H = target: T5, Rb^P R741H (human, UniProt P06400 380-788, R741H)
T5 construct: also called variant 69
T5 sequence (looked up): T1 sequence (looked up) with N95S, R362H

Binder	Kd (Rb^P S474N) [nM]	Kd (Rb^P K462E) [nM]	Kd [1] [nM]	Kd (Rb^P D604G) [nM]	Kd (Rb^P R741H) [nM]
B1	19	27	14	27	21
B2	8	11	5	13	18
